Experimental data taken from patent publication US12178803B2, “CD47 blockade with PARP inhibition for disease treatment” (TRILLIUM THERAPEUTICS ULC, priority 2018, dated 2024).

Test: Systemic toxicity by clinical parameter scoring in the xenograft study
Assay type: in vivo
Settings: SIRPαFc added to niraparib and/or RT
Experimental: Niraparib (50 mg/kg) was administered 1 hour prior to RT, 5 times per week for 1 week. Mice were treated with whole abdomen radiotherapy (external beam radiation therapy) at a dose of 2 Gy for 2 fractions using an image-guided small animal irradiator (225 kVp, 13 mA). Treatment was initiated on day 7 following tumor inoculation. Treatment efficacy was assessed by bioluminescent imaging (BLI) and animal survival. Systemic toxicity was evaluated by clinical parameter scoring.

Substance: SIRPαFc: CD47 blocking fusion protein: IgV domain of human SIRPα V2 fused to a human IgG Fc region; preferred SEQ ID NO:8
- additional toxicity when combined with PARPi (niraparib) and/or RT: without showing additional toxicity
